The source of these data is article doi:10.1101/2025.05.01.651538.

The assay deals with wild-type unmodified 147bp nucleosome (nucleosome core particle, human histones). The assay can be described thus: EMSA. As to conditions: chain shown with the change; 0-32 µM KDM5A^MutR titrated against 147bp nucleosome. (In general: In EMSA bound probe runs differently from free probe, usually more slowly.)

B1: KDM5A^CAT (KDM5A 1–801, minimal catalytically active construct), P29375 R210A; R217A; R219A; R220A; R232A; R264A; R265A; R266A; R271A; R280A; R282A (protein)
chain: MAGVGPGGYAAEFVPPPECPVFEPSWEEFTDPLSFIGRIRPLAEKTGICKIRPPKDWQPPFACEVKSFRFTPRVQRLNELEAMTRVRLDFLDQLAKFWELQGSTLKIPVVERKILDLYALSKIVASKGGFEMVTKEKKWSKVGSRLGYLPGKGTGSLLKSHYERILYPYELFQSGVSLMGVQMPNLDLKEKVEPEVLSTDTQTSPEPGTAMNILPKATAAVKTQSESGDVSANTELKKLQIFGAGPKVVGLAMGTKDKEDEVTAAAKVTNASDAFNMQMAQAKGTLSVNFVDLYVCMFCGRGNNEDKLLLCDGCDDSYHTFCLIPPLPDVPKGDWRCPKCVAEECSKPREAFGFEQAVREYTLQSFGEMADNFKSDYFNMPVHMVPTELVEKEFWRLVSSIEEDVIVEYGADISSKDFGSGFPVKDGRRKILPEEEEYALSGWNLNNMPVLEQSVLAHINVDISGMKVPWLYVGMCFSSFCWHIEDHWSYSINYLHWGEPKTWYGVPSHAAEQLEEVMRELAPELFESQPDLLHQLVTIMNPNVLMEHGVPVYRTNQCAGEFVVTFPRAYHSGFNQGYNFAEAVNFCTADWLPIGRQCVNHYRRLRRHCVFSHEELIFKMAADPECLDVGLAAMVCKELTLMTEEETRLRESVVQMGVLMSEEEVFELVPDDERQCSACRTTCFLSALTCSCNPERLVCLYHPTDLCPCPMQKKCLRYRYPLEDLPSLLYGVKVRAQSYDTWVSRVTEALSANFNHKKDLIELRVMLEDAEDRKYPENDLFRKLRDAVKEAETCASVAQLL
B1 registered a dissociation constant (Kd) of 14 µM.

Usually Kd stands for the constant that tells how readily two partners part at equilibrium.
